In US20200024330A1:

Tests used:
Experiment in all cases: cell-based or functional assay
[1] = target: HIV-1 JR-CSF Env E321aA (HIV-1 isolate JR-CSF) (UniProt P20871)
[2] = target: Env of the clade B HIV-1 pseudoviruses of the cross-clade 162-pseudovirus panel (n = 31)
[3] = target: HIV-1 JR-CSF Env I424A (HIV-1 (isolate JR-CSF)) (UniProt P20871)
[4] = target: HIV-1 JR-CSF Env I423A (HIV-1 (isolate JR-CSF)) (UniProt P20871)
[5] = target: HIV-1 Env of isolate 92TH021 (HIV-1)
[6] = target: HIV-1 JR-CSF Env N262A (HIV-1 JR-CSF) (UniProt P20871)
[7] = target: HIV-1 JR-CSF Env L416A (HIV-1 (isolate JR-CSF)) (UniProt P20871)
[8] = target: HIV-1 JR-CSF Env N392Q (HIV-1 (isolate JR-CSF)) (UniProt P20871)
[9] = target: HIV-1 JR-CSF Env N332A (HIV-1 isolate JR-CSF) (UniProt P20871)
[10] = target: Env of the clade A HIV-1 pseudoviruses of the cross-clade 162-pseudovirus panel (n = 26)
[11] = target: HIV-1 JR-CSF Env K421A (HIV-1 (isolate JR-CSF)) (UniProt P20871)
[12] = target: HIV-1 JR-CSF Env K305A (HIV-1 JR-CSF) (UniProt P20871)
[13] = target: HIV-1 JR-CSF Env N355A (HIV-1 isolate JR-CSF) (UniProt P20871)
[14] = target: HIV-1 JR-CSF Env R327A (HIV-1 isolate JR-CSF) (UniProt P20871)
[15] = target: HIV-1 JR-CSF Env N301A (HIV-1 JR-CSF) (UniProt P20871)
[16] = target: HIV-1 JR-CSF Env T413A (HIV-1 (isolate JR-CSF)) (UniProt P20871)
[17] = target: HIV-1 JR-CSF Env Q422A (HIV-1 (isolate JR-CSF)) (UniProt P20871)
[18] = target: HIV-1 JR-CSF Env S393A (HIV-1 (isolate JR-CSF)) (UniProt P20871)
[19] = target: Env of the clade F HIV-1 pseudoviruses of the cross-clade 162-pseudovirus panel (n = 15)
[20] = target: HIV-1 JR-CSF Env T319A (HIV-1 isolate JR-CSF) (UniProt P20871)
[21] = target: Env of the clade AG HIV-1 pseudoviruses of the cross-clade 162-pseudovirus panel (n = 10)
[22] = target: HIV-1 JR-CSF Env F317A (HIV-1 isolate JR-CSF) (UniProt P20871)
[23] = target: HIV-1 JR-CSF Env N241A (HIV-1 JR-CSF) (UniProt P20871)
[24] = target: HIV-1 JR-CSF Env S387A (HIV-1 (isolate JR-CSF)) (UniProt P20871)
[25] = target: HIV-1 JR-CSF Env D417A (HIV-1 (isolate JR-CSF)) (UniProt P20871)
[26] = target: HIV-1 Env of isolate JR-CSF (HIV-1) (UniProt P20871)
[27] = target: HIV-1 JR-CSF Env I414A (HIV-1 (isolate JR-CSF)) (UniProt P20871)
[28] = target: Env of all HIV-1 pseudoviruses of the cross-clade 162-pseudovirus panel (n = 162)
[29] = target: HIV-1 JR-CSF Env R419A (HIV-1 (isolate JR-CSF)) (UniProt P20871)
[30] = target: HIV-1 JR-CSF Env V292A (HIV-1 JR-CSF) (UniProt P20871)
[31] = target: Env of the clade C HIV-1 pseudoviruses of the cross-clade 162-pseudovirus panel (n = 27)
[32] = target: HIV-1 JR-CSF Env N302A (HIV-1 JR-CSF) (UniProt P20871)
[33] = target: HIV-1 JR-CSF Env N339A (HIV-1 isolate JR-CSF) (UniProt P20871)
[34] = target: HIV-1 JR-CSF Env R304A (HIV-1 JR-CSF) (UniProt P20871)
[35] = target: HIV-1 JR-CSF Env T341A (HIV-1 isolate JR-CSF) (UniProt P20871)
[36] = target: HIV-1 JR-CSF Env T388A (HIV-1 (isolate JR-CSF)) (UniProt P20871)
[37] = target: HIV-1 JR-CSF Env F210A (HIV-1 JR-CSF) (UniProt P20871)
[38] = target: HIV-1 JR-CSF Env Q337A (HIV-1 isolate JR-CSF) (UniProt P20871)
[39] = target: HIV-1 JR-CSF Env I415A (HIV-1 (isolate JR-CSF)) (UniProt P20871)

B1: PGT-125 (antibody, V domains shown)
VH: QSQLQESGPRLVEASETLSLTCNVSGESTGACTYFWGWVRQAPGKGLEWIGSLSHCQSFWGSGWTFHNPSLKSRLTISLDTPKNQVFLKLTSLTAADTATYYCARFDGEVLVYNHWPKPAWVDLWGRGIPVTVSS
VL: QSALTQPPSASGSPGQSITISCNGTATNFVSWYQQFPDKAPKLIIFGVDKRPPGVPDRFSGSRSGTTASLTVSRLQTDDEAVYYCGSLVGNWDVIFGGGTTLTVL
B1 was tested, and the Fold IC50 increase relative to wild-type [1] was 1 fold, the Median IC50 against viruses neutralized with an IC50 <50 µg/ml [2] was 0.02 µg/mL and the Fold IC50 increase relative to wild-type [3] was 0.7 fold. The Fold IC50 increase relative to wild-type [4] was 5 fold, the IC50 (µg/mL), pseudovirus neutralization [5] was 0.006 µg/mL and the Polyclonal Transfectant Neutralization Index (well 5123 A6) [5] was 50.6. For the same binder, the Primary Neutralization Index (B cell culture well 5123 A6) [5] was 133, the Fold IC50 increase relative to wild-type [6] was 0.9 fold and the Fold IC50 increase relative to wild-type [7] was 0.8 fold. For the same binder, the Fold IC50 increase relative to wild-type [8] was 1.2 fold, the Fold IC50 increase relative to wild-type [9] was 2 fold and the Median IC50 against viruses neutralized with an IC50 <50 µg/ml [10] was 0.01 µg/mL. It also gave a Fold IC50 increase relative to wild-type [11] of 1.2 fold, a Fold IC50 increase relative to wild-type [12] of 1.9 fold and a Fold IC50 increase relative to wild-type [13] of 1.2 fold. It also gave a Fold IC50 increase relative to wild-type [14] of 2.1 fold, a Fold IC50 increase relative to wild-type [15] of 213 fold and a Fold IC50 increase relative to wild-type [16] of 0.5 fold. It also gave a Fold IC50 increase relative to wild-type [17] of 1.2 fold, a Fold IC50 increase relative to wild-type [18] of 0.5 fold and a Median IC50 against viruses neutralized with an IC50 <50 µg/ml [19] of 0.04 µg/mL. For the same binder, the Fold IC50 increase relative to wild-type [20] was 1.1 fold, the Median IC50 against viruses neutralized with an IC50 <50 µg/ml [21] was 0.01 µg/mL and the Fold IC50 increase relative to wild-type [22] was 1.8 fold. For the same binder, the Fold IC50 increase relative to wild-type [23] was 0.5 fold, the Fold IC50 increase relative to wild-type [24] was 0.6 fold and the Fold IC50 increase relative to wild-type [25] was 0.5 fold. It also gave a Polyclonal Transfectant Neutralization Index (well 5123 A6) [26] of 119, a Primary Neutralization Index (B cell culture well 5123 A6) [26] of 1730 and a Fold IC50 increase relative to wild-type [27] of 0.3 fold. The Median IC50 against viruses neutralized with an IC50 <50 µg/ml [28] was 0.04 µg/mL, the Fold IC50 increase relative to wild-type [29] was 1 fold and the Fold IC50 increase relative to wild-type [30] was 3.3 fold. For the same binder, the Median IC50 against viruses neutralized with an IC50 <50 µg/ml [31] was 1.83 µg/mL, the Fold IC50 increase relative to wild-type [32] was 0.7 fold and the Fold IC50 increase relative to wild-type [33] was 0.9 fold. It also gave a Fold IC50 increase relative to wild-type [34] of 1.9 fold, a Fold IC50 increase relative to wild-type [35] of 1.1 fold and a Fold IC50 increase relative to wild-type [36] of 0.6 fold. It also gave a Fold IC50 increase relative to wild-type [37] of 1.4 fold, a Fold IC50 increase relative to wild-type [38] of 0.8 fold and a Fold IC50 increase relative to wild-type [39] of 0.3 fold.

B2: PGT-126 (antibody, V domains shown)
VH: QPQLQESGPGLVEASETLSLTCTVSGDSTAACDYFWGWVRQPPGKGLEWIGGLSHCAGYYNTGWTYHNPSLKSRLTISLDTPKNQVFLKLNSVTAADTAIYYCARFDGEVLVYHDWPKPAWVDLWGRGTLVTVSS
VL: QSALTQPPSASGSPGQSISISCTGTSNRFVSWYQQHPGKAPKLVIYGVNKRPSGVPDRFSGSKSGNTASLTVSGLQTDDEAVYYCSSLVGNWDVIFGGGTKLTVL
B2 was tested, and the Fold IC50 increase relative to wild-type [1] was 0.6 fold, the Median IC50 against viruses neutralized with an IC50 <50 µg/ml [2] was 0.02 µg/mL and the Fold IC50 increase relative to wild-type [3] was 0.4 fold. The Fold IC50 increase relative to wild-type [4] was 1.1 fold, the IC50 (µg/mL), pseudovirus neutralization [5] was 0.197 µg/mL and the Polyclonal Transfectant Neutralization Index (well 5141 B17) [5] was 2.74. It also gave a Primary Neutralization Index (B cell culture well 5141 B17) [5] of 2.3, a Fold IC50 increase relative to wild-type [6] of 1 fold and a Fold IC50 increase relative to wild-type [7] of 0.8 fold. For the same binder, the Fold IC50 increase relative to wild-type [8] was 1.6 fold, the Fold IC50 increase relative to wild-type [9] was 181 fold and the Median IC50 against viruses neutralized with an IC50 <50 µg/ml [10] was 0.01 µg/mL. It also gave a Fold IC50 increase relative to wild-type [11] of 0.7 fold, a Fold IC50 increase relative to wild-type [12] of 1 fold and a Fold IC50 increase relative to wild-type [13] of 0.2 fold. It also gave a Fold IC50 increase relative to wild-type [14] of 2.2 fold, a Fold IC50 increase relative to wild-type [15] of 314 fold and a Fold IC50 increase relative to wild-type [16] of 0.7 fold. The Fold IC50 increase relative to wild-type [17] was 1.1 fold, the Fold IC50 increase relative to wild-type [18] was 0.5 fold and the Median IC50 against viruses neutralized with an IC50 <50 µg/ml [19] was 0.05 µg/mL. For the same binder, the Fold IC50 increase relative to wild-type [20] was 0.8 fold, the Median IC50 against viruses neutralized with an IC50 <50 µg/ml [21] was 0.03 µg/mL and the Fold IC50 increase relative to wild-type [22] was 1 fold. The Fold IC50 increase relative to wild-type [23] was 0.6 fold, the Fold IC50 increase relative to wild-type [24] was 0.6 fold and the Fold IC50 increase relative to wild-type [25] was 1 fold. For the same binder, the Polyclonal Transfectant Neutralization Index (well 5141 B17) [26] was 102, the Primary Neutralization Index (B cell culture well 5141 B17) [26] was 1410 and the Fold IC50 increase relative to wild-type [27] was 0.4 fold. For the same binder, the Median IC50 against viruses neutralized with an IC50 <50 µg/ml [28] was 0.04 µg/mL, the Fold IC50 increase relative to wild-type [29] was 1.2 fold and the Fold IC50 increase relative to wild-type [30] was 5 fold. It also gave a Median IC50 against viruses neutralized with an IC50 <50 µg/ml [31] of 0.18 µg/mL, a Fold IC50 increase relative to wild-type [32] of 0.9 fold and a Fold IC50 increase relative to wild-type [33] of 0.6 fold. The Fold IC50 increase relative to wild-type [34] was 1.8 fold, the Fold IC50 increase relative to wild-type [35] was 0.5 fold and the Fold IC50 increase relative to wild-type [36] was 0.6 fold. The Fold IC50 increase relative to wild-type [37] was 1.5 fold, the Fold IC50 increase relative to wild-type [38] was 0.4 fold and the Fold IC50 increase relative to wild-type [39] was 0.3 fold.
